# Reference: publication PMC3686320 (Biochemistry, 2013)
# Read-outs that look alike come from different tables or passages of the source.
# B1: Escherichia coli primosomal DnaT protein, wild type (natural protein, E. coli, UniProt P0A8J2 1-179, looked up)
# chain: MSSRVLTPDVVGIDALVHDHQTVLAKAEGGVVAVFANNAPAFYAVTPARLAELLALEEKLARPGSDVALDDQLYQEPQAAPVAVPMGKFAMYPDWQPDADFIRLAALWGVALREPVTTEELASFIAYWQAEGKVFHHVQWQQKLARSLQIGRASNGGLPKRDVNTVSEPDSQIPPGFRG
# B2: isolated N-terminal core domain of the DnaT protein (domain or fragment, E. coli, UniProt P0A8J2 1-161, looked up)
# chain: MSSRVLTPDVVGIDALVHDHQTVLAKAEGGVVAVFANNAPAFYAVTPARLAELLALEEKLARPGSDVALDDQLYQEPQAAPVAVPMGKFAMYPDWQPDADFIRLAALWGVALREPVTTEELASFIAYWQAEGKVFHHVQWQQKLARSLQIGRASNGGLPKR
# B3: fluorescein-labeled N-terminal core domain of the DnaT variant S3C (domain or fragment, E. coli, UniProt P0A8J2 1-161, looked up)
# chain: MSCRVLTPDVVGIDALVHDHQTVLAKAEGGVVAVFANNAPAFYAVTPARLAELLALEEKLARPGSDVALDDQLYQEPQAAPVAVPMGKFAMYPDWQPDADFIRLAALWGVALREPVTTEELASFIAYWQAEGKVFHHVQWQQKLARSLQIGRASNGGLPKR
# modifications: fluorescein (fluorescein maleimide) on the cysteine that replaces serine 3
# Columns and labels:
# Experiment in all cases: AUC
# AUC [1] = target: the molecule itself
# AUC [2] = target: the molecule itself; remark: listed apart in the source
# AUC [3] = target: the molecule itself; remark: listed apart in the source
protein,measurement,setting,value
B1,stoichiometry N,AUC [1],3
B2,stoichiometry N,AUC [2],2
B3,stoichiometry N,AUC [3],2
